# Laboratory results published in patent publication US10716830B2, “ERBB4 activator screening assay” (Children's Hospital Los Angeles, priority 2011, dated 2020).
# B1: Neuregulin-4 (protein, UniProt Q8WWG1 1-62, looked up)
# extracellular domain: MPTDHEEPCGPSHKSFCLNGGLCYVIPTIPSPFCRCVENYTGARCEEVFLPGSSIQTKSNLF
# modifications: ectodomain
# notes: ErbB4-specific ligand
# How the values were obtained:
# YAMC-B4 cells [1] = assay: Cytokine (TNF plus IFN-γ)-induced apoptosis in cultured colon epithelial cells; type: cell-based, mouse; settings: NRG4 100 ng/ml, TNF 100 ng/ml plus IFN-γ 150 U/ml, 6 h, p<0.03
# Excerpt: (§1) Conditionally immortalized, non-transformed young adult mouse colon (YAMC) epithelial cells were provided by Dr. Robert Whitehead (Whitehead, R. H., VanEeden, P. E., Noble, M. D., Ataliotis, P., and Jat, P. S. (1993) Proc Natl Acad Sci USA 90, 587-591). These cells express low levels of endogenous ErbB4; YAMC-B4 cells expressing a human ErbB4 construct were generated as previously described (Frey, M. R., Edelblum, K. L., Mullane, M. T., Liang, D., and Polk, D. B. (2009) Gastroenterology 136, 217-226). […]
# Cultured mouse colonic epithelial cells expressing ErbB4 (YAMC-B4) cells were exposed to TNF (100 ng/ml) plus interferon (IFN)-γ (150 units/ml), with or without NRG4 (100 ng/ml). After 6 h, the cells were fixed and apoptosis was assessed by immunofluorescence analysis for cleaved caspase-3. When the YAMC-B4 cells were given 100 ng/ml NRG4, cells were protected from apoptosis induced by the 6 h exposure to the cytokine cocktail containing TNF (100 ng/ml) and IFN-γ (150 U/ml), as measured by immunofluorescence analysis for cleaved caspase-3 (FIG. 1B; 2.7-fold decrease with cytokines plus NRG4 vs. cytokines alone, p<0.03).
# [2] = tested on: EGFR, ErbB2, ErbB3, and ErbB4; assay: ErbB receptor phosphorylation by western blot with phospho-specific antibodies; type: cell-based, mouse; settings: YAMC-B4 cells (human ErbB4 construct); 10 min; HRG-1β 100 ng/ml, NRG4, EGF 10 ng/ml
# Excerpt: as §1
# (§2) Cell lysates were extracted in modified RIPA buffer as previously described (Frey, M. R., Dise, R. S., Edelblum, K. L., and Polk, D. B. (2006) Embo J 25, 5683-5692), cleared by centrifugation, and boiled in Laemmli sample buffer. Samples were separated on SDS-polyacrylamide gels (6-10% as appropriate), blotted on PVDF membranes, and subjected to quantitative immunoblot using the Li-Cor Odyssey infrared detection system. Equal loading was monitored by immunoblots for actin and at least one additional protein.
# Phosphorylation of EGFR, ErbB2, ErbB3, and ErbB4 was determined by western blot analysis of cell lysates using phospho-specific antibodies. […]
# colon epithelial cells = assay: Cytokine-induced colon epithelial apoptosis in vivo; design: species or system mouse; settings: C57Bl/6 mice, NRG4 100 μg/kg i.p., TNF 250 μg/kg plus IFN-γ 250 U/g, 24 h
# Protocol: All animal use was approved and monitored by the Children's Hospital Los Angeles Institutional Animal Care and Use Committee. […] Cytokines, growth factors, and inhibitors were given by intraperitoneal injection. 24 h after injections, mice were sacrificed and colons collected either for fixation and embedding or for epithelial lysates. For the latter, colons were incubated in Cell Recovery Solution (BD Biosciences, San Jose, Calif.) for 1 h at 4° C.; crypts were released by vigorous shaking and collected by centrifugation, similar to as previously described (Whitehead, R. H., and Robinson, P. S. (2009) American journal of physiology. Gastrointestinal and liver physiology 296, G455-460). Collected crypts were lysed and processed similar to cultured cells as below. […]
# For apoptosis analysis in vivo, mice were injected i.p. with PBS/vehicle, TNF (250 μg/kg) plus IFN-γ (250 units/g), NRG4 (100 μg/kg), or NRG4 plus TNF and IFN-γ. […] Apoptosis was detected by in situ oligo ligation (ISOL; EMD Millipore, Billerica, Mass.) staining for DNA fragmentation on sections of paraffin-embedded tissue, and by cleaved caspase-3 western blot on homogenates.
# 24 hours after injections, colons were harvested. Apoptosis assessed by Western blot analysis for cleaved caspase-3 on isolated epithelial cells determined that NRG4 blocked cytokine-induced apoptosis in vivo (FIG. 3A, B; 3.6-fold decrease, p=0.012).
# YAMC-B4 cells [3] = assay: EdU proliferation assay; type: cell-based, mouse; settings: 24 h stimulation
# Protocol: (§3) Proliferative index in fixed colon specimens was assessed by immunohistochemical stain for Ki-67. In vitro, cells were exposed to vehicle or growth factors for 24 h, then labeled with 5-ethynyl-2-deoxyuridine (EdU) for 2 h and fixed. Nuclei were marked with DAPI, and incorporated EdU was detected using a Click-iT EdU kit (Invitrogen).
# (§4) Most ErbB ligands stimulate multiple cellular processes, including proliferation and migration, in colon epithelial cells (Frey, M. R., Golovin, A., and Polk, D. B. (2004) J Biol Chem 279, 44513-44521). To determine if NRG4 is similarly broad in its cellular effects, we subjected YAMC-B4 cells to proliferation assays in the presence of NRG4. […] In vivo, the number of Ki67-positive nuclei per crypt in PBS vs. NRG4-injected mice was not altered 24 h post-injection (FIG. 4B).
# colon crypts = assay: Ki-67 proliferative index in colon in vivo; design: species or system mouse; settings: 24 h post-injection
# Protocol: as §3, §4
# YAMC-B4 cells [4] = assay: Cell migration/restitution (modified scratch) assay; type: cell-based, mouse; settings: 8 h
# Protocol: Cells grown on fibronectin-coated plates were subjected to multiple circular wounds with a rotating silicone probe as previously described (Corredor, J., Yan, F., Shen, C. C., Tong, W., John, S. K., Wilson, G., Whitehead, R., and Polk, D. B. (2003) American journal of physiology. Cell physiology 284, C953-961). Cultures were photographed immediately and 8 h after wounding; % closure was determined by measuring wounds in Image.
# To test the potential effect of NRG4-ErbB4 signaling on cell motility, we used a modified scratch assay for restitution/migration (Corredor, J., Yan, F., Shen, C. C., Tong, W., John, S. K., Wilson, G., Whitehead, R., and Polk, D. B. (2003) American journal of physiology. Cell physiology 284, C953-961). Over an 8 h period, NRG4 had no effect on the rate at which YAMC-B4 cells moved into the denuded area of a culture plate (FIG. 4C), while in contrast EGF caused a 54% increase in migration over control.
# [5] = Dextran sodium sulfate-induced acute murine colitis; type: in vivo, mouse; settings: C57/BL6 mice, NRG4 100 μg/kg injected daily vs PBS
# Protocol: 6-8 week-old male C57/BL6 mice were given 3% DSS in drinking water for 7 days and injected daily with either PBS or NRG4 (100 μg/kg). Weight-loss was monitored over the course of the experiment (FIG. 4D(i)). On day 7, mice were sacrificed; colons were excised, rolled and fixed. H&E sections were scored by a pathologist blind to the experimental conditions using a scoring system adapted from that of Dielman et al. (Dieleman, L. A., et al., Chronic experimental colitis induced by dextran sulphate sodium (DSS) is characterized by Th1 and Th2 cytokines. Clinical and experimental immunology, 1998. 114(3): p. 385-91) (FIG. 4D(ii)).
# Akt [6] = assay: Akt phosphorylation in whole cell lysates by western blot; type: cell-based, mouse; settings: YAMC-B4 cells; NRG4 100 ng/ml, 10 min
# Excerpt: as §2
# (§5) To identify signaling pathways which could be involved in NRG4-stimulated cell survival, we exposed YAMC-B4 cells to NRG4 or EGF and prepared whole cell lysates for western blot analysis. […] Furthermore, COX-2 expression, which is induced by either HRG-1β or EGF after 6 h exposure, and is required for cell survival induced by ErbB4-EGFR dimers (Frey, M. R., Hilliard, V. C., Mullane, M. T., and Polk, D. B. (2010) Laboratory Investigation 90, 1415-1424), was not induced by NRG4. Thus, NRG4 promotes cell survival through pathways at least partly distinct from those activated by other ligands.
# ERK MAPK = ERK MAPK phosphorylation in whole cell lysates by western blot; type: cell-based, mouse; settings: YAMC-B4 cells; NRG4 100 ng/ml, 10 min
# Excerpt: as §2, §5
# COX-2 = COX-2 expression in YAMC-B4 cells; type: cell-based, mouse; settings: 6 h exposure
# Protocol: as §5
# Akt [7] = assay: Akt phosphorylation in colon epithelium of injected mice; type: in vivo, mouse; settings: mice injected with NRG4, with or without TNF plus IFN-γ; 24 h
# Protocol: All animal use was approved and monitored by the Children's Hospital Los Angeles Institutional Animal Care and Use Committee. […] Cytokines, growth factors, and inhibitors were given by intraperitoneal injection. 24 h after injections, mice were sacrificed and colons collected either for fixation and embedding or for epithelial lysates. For the latter, colons were incubated in Cell Recovery Solution (BD Biosciences, San Jose, Calif.) for 1 h at 4° C.; crypts were released by vigorous shaking and collected by centrifugation, similar to as previously described (Whitehead, R. H., and Robinson, P. S. (2009) American journal of physiology. Gastrointestinal and liver physiology 296, G455-460). Collected crypts were lysed and processed similar to cultured cells as below. For murine colitis, IL-10^−/− mice on C57Bl/6 background were maintained unchallenged until 32-36 weeks of age, at which point knockout mice but not wild-type animals have extensive inflammatory cytokine-driven colitis (Kuhn, R., Lohler, J., Rennick, D., Rajewsky, K., and Muller, W. (1993) Cell 75, 263-274).
# Tissues and cells were fixed with 4% paraformaldehyde (Electron Microscopy Sciences, Hatfield, Pa.). […] For immunofluorescence, slides were mounted with Vectashield medium containing DAPI (Vector Laboratories, Burlingame, Calif.). […]
# [8] = tested on: rat intestinal epithelial cells; assay: Cronobacter sakazakii-induced apoptosis in cultured intestinal epithelial cells; type: cell-based
# Excerpt: NRG4 inhibits CS-induced cell death.
# [9] = Experimental necrotizing enterocolitis (NEC) model
molecule,measurement,setting,value
B1,"decrease in apoptosis (cleaved caspase-3 immunofluorescence), cytokines plus NRG4 vs. cytokines alone",YAMC-B4 cells [1],2.7 fold
same,"phosphorylation of EGFR, ErbB2, ErbB3, and ErbB4",[2],activated only ErbB4
same,"decrease in apoptosis, ISOL staining on fixed colon sections",colon epithelial cells; p<0.0001,3.1 fold
same,"decrease in cytokine-induced apoptosis, cleaved caspase-3 western blot on isolated epithelial cells",colon epithelial cells; p=0.012,3.6 fold
same,"cellular uptake of EdU (proliferation) vs. control, in words",YAMC-B4 cells [3],not different from control
same,"number of Ki67-positive nuclei per crypt, PBS vs. NRG4-injected mice",colon crypts,not altered
same,"rate at which cells moved into the denuded area (migration), in words",YAMC-B4 cells [4],no effect
same,colon shortening,[5]; 3% DSS 7 days,reduces
same,histologically detectable colonic damage,"[5]; 3% DSS 7 days, blinded H&E score",reduces
same,weight loss,[5]; 3% DSS in drinking water 7 days,reduces
same,phosphorylation of Akt,Akt [6],resulted in phosphorylation of Akt
same,phosphorylation of ERK MAPK,ERK MAPK,not ERK MAPK
same,COX-2 expression,COX-2,not induced
same,"Akt phosphorylation in colon epithelial cells versus controls (western blot, immunofluorescence)",Akt [7],increased Akt phosphorylation
same,Cronobacter sakazakii induced apoptosis,[8],attenuates
same,protection of the small intestine,[9]; formula feeding/hypoxia model of necrotizing enterocolitis,protective
same,survival of rat pups,"[9]; hypoxia/hypothermia model of NEC in rat pups, given by gavage with each feed",survive longer
